This experiment has as its target T1, rabbit GH receptor (full length, stably expressed on murine FDC-P1 cells, GH-R4 line) (rabbit) (UniProt P19941).
T1 sequence (looked up): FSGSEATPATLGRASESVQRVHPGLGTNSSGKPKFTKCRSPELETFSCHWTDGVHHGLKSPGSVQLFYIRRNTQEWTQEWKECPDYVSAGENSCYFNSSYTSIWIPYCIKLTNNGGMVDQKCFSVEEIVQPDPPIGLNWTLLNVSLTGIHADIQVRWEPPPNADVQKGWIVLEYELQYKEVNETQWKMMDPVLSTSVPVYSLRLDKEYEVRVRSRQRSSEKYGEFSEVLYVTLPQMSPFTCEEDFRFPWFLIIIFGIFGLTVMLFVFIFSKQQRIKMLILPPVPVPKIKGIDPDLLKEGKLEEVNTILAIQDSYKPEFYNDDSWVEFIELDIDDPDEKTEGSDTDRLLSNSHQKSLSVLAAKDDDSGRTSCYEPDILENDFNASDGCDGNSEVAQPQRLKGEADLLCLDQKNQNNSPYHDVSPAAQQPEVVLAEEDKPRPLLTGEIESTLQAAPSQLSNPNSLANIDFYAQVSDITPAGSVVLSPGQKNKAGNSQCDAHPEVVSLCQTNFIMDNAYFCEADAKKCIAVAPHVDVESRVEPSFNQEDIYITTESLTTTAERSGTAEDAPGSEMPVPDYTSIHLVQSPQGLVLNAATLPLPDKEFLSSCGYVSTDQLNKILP
The experiment is described as follows: cell-based or functional assay.

Values joined by “and” are separate entries in the source; they are usually repeats but may differ in a detail not shown here. Equal values may be shown once.

In turn, “PEG-T3C hGH (mono-PEGylated T3C monomer) (from UniProt P01241 27-217) (ligand)” showed a mean EC50 (molar form), cell proliferation assay (Example 1) of 0.07 nM.

Take “PEG-S144C hGH (mono-PEGylated S144C) (from UniProt P01241 27-217) (ligand)”: the EC50, individual experiment, cell proliferation assay (Example 1) was 40 ng/mL and 45 ng/mL; the mean EC50 (molar form), cell proliferation assay (Example 1) amounted to 2 nM.

“hGH cysteine mutein S144C (from UniProt P01241 27-217) (ligand)”: the EC50, individual experiment (second value), proliferation of FDC-P1 cells expressing the rabbit GH receptor is 1.1 ng/mL and the Mean EC50, proliferation of FDC-P1 cells expressing the rabbit GH receptor (GH-R4), MTS amounted to 1.6 ng/mL.

As for “hGH cysteine mutein T148C (from UniProt P01241 27-217) (ligand)”, the EC50, individual experiment (T148C-lotA), proliferation of FDC-P1 cells expressing the rabbit GH receptor was 0.4 ng/mL and 0.5 ng/mL; the EC50, individual experiment (T148C-lotB), proliferation of FDC-P1 cells expressing the rabbit GH receptor is 1.5 ng/mL and 1.9 ng/mL and 3.1 ng/mL; the Mean EC50 (T148C-lotA), proliferation of FDC-P1 cells expressing the rabbit GH receptor (GH-R4), MTS is 0.5 ng/mL; the Mean EC50 (T148C-lotB), proliferation of FDC-P1 cells expressing the rabbit GH receptor (GH-R4), MTS was 2.5 ng/mL.

In the case of “wild-type recombinant human growth hormone (rhGH) secreted to the E. coli periplasm from stII-hGH (from UniProt P01241 27-217) (ligand)”, the EC50, individual experiment, proliferation of FDC-P1 cells expressing the rabbit GH receptor was 0.8 ng/mL and 1.1 ng/mL; the Mean EC50, proliferation of FDC-P1 cells expressing the rabbit GH receptor (GH-R4), MTS turned out to be 0.8 ng/mL.

As for “hGH cysteine mutein T3C, disulfide-linked homodimer (from UniProt P01241 27-217) (ligand)”, the Mean EC50, proliferation of FDC-P1 cells expressing the rabbit GH receptor (GH-R4), MTS was found to be 1.4 ng/mL.

These data come from patent US20050187160A1.
